pKd: −log10 of the molar value.
How the values were obtained:
[1] = target: human LAG-3 domain 1-2 Fc fusion, point mutation #3 P43A (human) (UniProt P18627); assay: SPR, Fab over captured mutant LAG-3-Fc
[2] = target: human LAG-3 domain 1-2 Fc fusion, point mutation #4 S45A (human) (UniProt P18627); assay: SPR, Fab over captured mutant LAG-3-Fc
[3] = target: human LAG-3 domain 1-2 Fc fusion, point mutation #2 Q41A (human) (UniProt P18627); assay: SPR, Fab over captured mutant LAG-3-Fc
[4] = target: human LAG-3 domain 1-2 Fc fusion, point mutation #29 P82A (human) (UniProt P18627); assay: SPR, Fab over captured mutant LAG-3-Fc
[5] = target: human LAG-3 domain 1-2 Fc fusion, point mutation #56 G112A (human) (UniProt P18627); assay: SPR, Fab over captured mutant LAG-3-Fc
Chain of human LAG-3 domain 1-2 Fc fusion, point mutation #56 G112A (human) (P18627 23-266 G112A): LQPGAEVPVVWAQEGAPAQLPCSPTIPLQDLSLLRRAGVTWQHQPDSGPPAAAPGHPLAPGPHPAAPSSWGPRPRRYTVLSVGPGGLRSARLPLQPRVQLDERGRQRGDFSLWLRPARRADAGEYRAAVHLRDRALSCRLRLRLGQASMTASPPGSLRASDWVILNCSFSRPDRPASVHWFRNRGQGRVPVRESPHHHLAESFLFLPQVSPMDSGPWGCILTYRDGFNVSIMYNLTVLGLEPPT

[6] = target: human LAG-3 domain 1-2 Fc fusion, point mutation #72 S133A (human) (UniProt P18627); assay: SPR, Fab over captured mutant LAG-3-Fc
[7] = target: human LAG-3 domain 1-2 Fc fusion, point mutation #69 R129A (human) (UniProt P18627); assay: SPR, Fab over captured mutant LAG-3-Fc
[8] = target: human LAG-3 domain 1-2 Fc fusion, point mutation #14 T62A (human) (UniProt P18627); assay: SPR, Fab over captured mutant LAG-3-Fc
[9] = target: human LAG-3 domain 1-2 Fc fusion, point mutation #25 H78A (human) (UniProt P18627); assay: SPR, Fab over captured mutant LAG-3-Fc
Chain of human LAG-3 domain 1-2 Fc fusion, point mutation #25 H78A (human) (P18627 23-266 H78A): as the sequence (P18627 23-266 G112A) above, with H56A, A90G counted along it

[10] = target: human LAG-3 domain 1-2 Fc fusion, point mutation #73 R137A (human) (UniProt P18627); assay: SPR, Fab over captured mutant LAG-3-Fc
[11] = target: human LAG-3 domain 1-2 Fc fusion, point mutation #49 G105A (human) (UniProt P18627); assay: SPR, Fab over captured mutant LAG-3-Fc
Chain of human LAG-3 domain 1-2 Fc fusion, point mutation #49 G105A (human) (P18627 23-266 G105A): as the sequence (P18627 23-266 G112A) above, with G83A, A90G counted along it

[12] = target: human LAG-3 domain 1-2 Fc fusion, chimeric construct #24 (mutated region AA 148-154) (human) (UniProt P18627); assay: SPR, Fab over captured mutant LAG-3-Fc
[13] = target: human LAG-3 domain 1-2 Fc fusion, point mutation #1 A40S (human) (UniProt P18627); assay: SPR, Fab over captured mutant LAG-3-Fc
[14] = target: human LAG-3 domain 1-2 Fc fusion, point mutation #18 P67A (human) (UniProt P18627); assay: SPR, Fab over captured mutant LAG-3-Fc
Chain of human LAG-3 domain 1-2 Fc fusion, point mutation #18 P67A (human) (P18627 23-266 P67A): as the sequence (P18627 23-266 G112A) above, with P45A, A90G counted along it

[15] = target: human LAG-3 domain 1-2 Fc fusion, chimeric construct #7 (mutated region AA 53-60) (human) (UniProt P18627); assay: SPR, Fab over captured mutant LAG-3-Fc
[16] = target: human LAG-3 domain 1-2 Fc fusion, point mutation #79 S159A (human) (UniProt P18627); assay: SPR, Fab over captured mutant LAG-3-Fc
Chain of human LAG-3 domain 1-2 Fc fusion, point mutation #79 S159A (human) (P18627 23-266 S159A): as the sequence (P18627 23-266 G112A) above, with A90G, S137A counted along it

[17] = target: human LAG-3 domain 1-2 Fc fusion, point mutation #74 P138A (human) (UniProt P18627); assay: SPR, Fab over captured mutant LAG-3-Fc
[18] = target: human LAG-3 domain 1-2 Fc fusion, chimeric construct #25 (mutated region AA 154-158) (human) (UniProt P18627); assay: SPR, Fab over captured mutant LAG-3-Fc
Chain of human LAG-3 domain 1-2 Fc fusion, chimeric construct #25 (mutated region AA 154-158) (human) (P18627 other isoform, or with tags, fused parts or gaps mutant): as the sequence (P18627 23-266 G112A) above, with A90G, R132P, A135D, L136F counted along it

[19] = target: human LAG-3 domain 1-2 Fc fusion, point mutation #15 Q64A (human) (UniProt P18627); assay: SPR, Fab over captured mutant LAG-3-Fc
[20] = target: human LAG-3 domain 1-2 Fc fusion, point mutation #16 H65A (human) (UniProt P18627); assay: SPR, Fab over captured mutant LAG-3-Fc
Chain of human LAG-3 domain 1-2 Fc fusion, point mutation #16 H65A (human) (P18627 23-266 H65A): as the sequence (P18627 23-266 G112A) above, with H43A, A90G counted along it

[21] = target: human LAG-3 domain 1-2 Fc fusion, point mutation #60 P118A (human) (UniProt P18627); assay: SPR, Fab over captured mutant LAG-3-Fc
[22] = target: human LAG-3 domain 1-2 Fc fusion, chimeric construct #1 (mutated region AA 23-30) (human) (UniProt P18627); assay: SPR, Fab over captured mutant LAG-3-Fc
[23] = target: human LAG-3 domain 1-2 Fc fusion, point mutation #28 A81S (human) (UniProt P18627); assay: SPR, Fab over captured mutant LAG-3-Fc
Chain of human LAG-3 domain 1-2 Fc fusion, point mutation #28 A81S (human) (P18627 23-266 A81S): as the sequence (P18627 23-266 G112A) above, with A59S, A90G counted along it

[24] = target: human LAG-3 domain 1-2 Fc fusion, point mutation #42 R95A (human) (UniProt P18627); assay: SPR, Fab over captured mutant LAG-3-Fc
[25] = target: human LAG-3 domain 1-2 Fc fusion, point mutation #8 Q51A (human) (UniProt P18627); assay: SPR, Fab over captured mutant LAG-3-Fc
[26] = target: human LAG-3 domain 1-2 Fc fusion, chimeric construct #9 (mutated region AA 66-71) (human) (UniProt P18627); assay: SPR, Fab over captured mutant LAG-3-Fc
Chain of human LAG-3 domain 1-2 Fc fusion, chimeric construct #9 (mutated region AA 66-71) (human) (P18627 other isoform, or with tags, fused parts or gaps mutant): as the sequence (P18627 23-266 G112A) above, with Q44R, G48D, P49Q, A90G counted along it

[27] = target: human LAG-3 domain 1-2 Fc fusion, point mutation #31 P84A (human) (UniProt P18627); assay: SPR, Fab over captured mutant LAG-3-Fc
[28] = target: human LAG-3 domain 1-2 Fc fusion, chimeric construct #15 (mutated region AA 95-100) (human) (UniProt P18627); assay: SPR, Fab over captured mutant LAG-3-Fc
Chain of human LAG-3 domain 1-2 Fc fusion, chimeric construct #15 (mutated region AA 95-100) (human) (P18627 other isoform, or with tags, fused parts or gaps mutant): as the sequence (P18627 23-266 G112A) above, with R73G, R76S, T78V, A90G counted along it

[29] = target: human LAG-3 domain 1-2 Fc fusion, point mutation #63 D123A (human) (UniProt P18627); assay: SPR, Fab over captured mutant LAG-3-Fc
Chain of human LAG-3 domain 1-2 Fc fusion, point mutation #63 D123A (human) (P18627 23-266 D123A): as the sequence (P18627 23-266 G112A) above, with A90G, D101A counted along it

[30] = target: human LAG-3 domain 1-2 Fc fusion, point mutation #76 D143A (human) (UniProt P18627); assay: SPR, Fab over captured mutant LAG-3-Fc
Chain of human LAG-3 domain 1-2 Fc fusion, point mutation #76 D143A (human) (P18627 23-266 D143A): as the sequence (P18627 23-266 G112A) above, with A90G, D121A counted along it

[31] = target: human LAG-3 domain 1-2 Fc fusion, chimeric construct #8 (mutated region AA 59-66) (human) (UniProt P18627); assay: SPR, Fab over captured mutant LAG-3-Fc
Chain of human LAG-3 domain 1-2 Fc fusion, chimeric construct #8 (mutated region AA 59-66) (human) (P18627 other isoform, or with tags, fused parts or gaps mutant): as the sequence (P18627 23-266 G112A) above, with A37G, G38W, Q44R, A90G counted along it

[32] = target: cynomolgus LAG-3 ECD human IgG1 Fc fusion (cynomolgus; human) (UniProt P18627); assay: SPR, Fab over captured LAG-3 ECD-Fc
Chain of cynomolgus LAG-3 ECD human IgG1 Fc fusion (cynomolgus; human) (P18627 other isoform, or with tags, fused parts or gaps, form in doubt): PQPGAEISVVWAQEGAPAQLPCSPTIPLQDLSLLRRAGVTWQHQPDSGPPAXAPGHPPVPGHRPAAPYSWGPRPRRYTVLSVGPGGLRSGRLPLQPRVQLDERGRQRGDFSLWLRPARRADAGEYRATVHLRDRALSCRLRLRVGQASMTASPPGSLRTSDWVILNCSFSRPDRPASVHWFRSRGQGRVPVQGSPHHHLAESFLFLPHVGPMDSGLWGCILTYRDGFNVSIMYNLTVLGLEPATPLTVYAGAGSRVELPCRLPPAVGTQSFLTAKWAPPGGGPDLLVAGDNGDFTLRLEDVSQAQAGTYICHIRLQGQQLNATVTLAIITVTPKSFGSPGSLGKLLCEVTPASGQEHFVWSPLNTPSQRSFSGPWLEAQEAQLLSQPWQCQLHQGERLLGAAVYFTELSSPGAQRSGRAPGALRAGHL

[33] = target: human LAG-3 ECD human IgG1 Fc fusion (human) (UniProt P18627); assay: SPR, Fab over captured LAG-3 ECD-Fc
Chain of human LAG-3 ECD human IgG1 Fc fusion (human) (P18627 23-450): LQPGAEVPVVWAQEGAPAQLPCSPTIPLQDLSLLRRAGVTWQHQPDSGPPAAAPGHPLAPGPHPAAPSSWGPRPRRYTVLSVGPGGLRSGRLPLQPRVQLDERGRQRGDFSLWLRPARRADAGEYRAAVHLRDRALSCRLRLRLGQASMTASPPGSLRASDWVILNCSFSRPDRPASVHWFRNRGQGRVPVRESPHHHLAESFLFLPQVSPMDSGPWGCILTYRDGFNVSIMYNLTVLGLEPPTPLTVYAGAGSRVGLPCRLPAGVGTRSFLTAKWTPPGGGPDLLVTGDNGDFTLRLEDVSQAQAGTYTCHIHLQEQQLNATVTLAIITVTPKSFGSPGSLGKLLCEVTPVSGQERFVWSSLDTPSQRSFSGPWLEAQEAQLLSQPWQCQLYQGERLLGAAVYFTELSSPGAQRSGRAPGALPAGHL

Chain of human LAG-3 domain 1-2 Fc fusion, point mutation #3 P43A (human) (P18627 23-266 P43A): as the sequence (P18627 23-266 G112A) above, with P21A, A90G counted along it
Chain of human LAG-3 domain 1-2 Fc fusion, point mutation #4 S45A (human) (P18627 23-266 S45A): as the sequence (P18627 23-266 G112A) above, with S23A, A90G counted along it
Chain of human LAG-3 domain 1-2 Fc fusion, point mutation #2 Q41A (human) (P18627 23-266 Q41A): as the sequence (P18627 23-266 G112A) above, with Q19A, A90G counted along it

KD mutant/KD wild type [1]: 1.2 fold
KD mutant/KD wild type [2]: 1 fold
KD mutant/KD wild type [3]: 1 fold
KD mutant/KD wild type [4]: 0.9 fold
KD mutant/KD wild type [5]: 0.9 fold
KD mutant/KD wild type [6]: 1.1 fold
KD mutant/KD wild type [7]: 1.2 fold
KD mutant/KD wild type [8]: 1.3 fold
KD mutant/KD wild type [9]: 0.8 fold
KD mutant/KD wild type [10]: 1 fold
KD mutant/KD wild type [11]: 1 fold
KD mutant/KD wild type [12]: 0.7 fold
KD mutant/KD wild type [13]: 1.1 fold
KD mutant/KD wild type [14]: 1.1 fold
KD mutant/KD wild type [15]: 1.4 fold
KD mutant/KD wild type [16]: 0.8 fold
KD mutant/KD wild type [17]: 1 fold
KD mutant/KD wild type [18]: 0.7 fold
KD mutant/KD wild type [19]: 1.3 fold
KD mutant/KD wild type [20]: 1.2 fold
KD mutant/KD wild type [21]: 0.8 fold
KD mutant/KD wild type [22]: 1.3 fold
KD mutant/KD wild type [23]: 0.7 fold
KD mutant/KD wild type [24]: 1.9 fold
KD mutant/KD wild type [25]: 0.8 fold
KD mutant/KD wild type [26]: 1.3 fold
KD mutant/KD wild type [27]: 0.6 fold
KD mutant/KD wild type [28]: 1.5 fold
KD mutant/KD wild type [29]: 1 fold
KD mutant/KD wild type [30]: 1 fold
KD mutant/KD wild type [31]: 1.3 fold
pKd [32]: 6.04
koff [32]: 0.0038 s⁻¹
kon [32]: 4200 M⁻¹ s⁻¹
pKd [33]: 8.07
koff [33]: 0.0012 s⁻¹
kon [33]: 140000 M⁻¹ s⁻¹
Substance: Fab fragment of 25F7-Lag3.5 analogue

From patent US20220363757A1
